Read-outs that look alike come from different tables or passages of the source.
T1: Human TIGIT expressed on the surface of cells (human, UniProt Q495A1 22-244)
T1 construct: also called human TIGIT expressed on the surface of CHO cells; human TIGIT overexpressed on CHO cells
T1 sequence: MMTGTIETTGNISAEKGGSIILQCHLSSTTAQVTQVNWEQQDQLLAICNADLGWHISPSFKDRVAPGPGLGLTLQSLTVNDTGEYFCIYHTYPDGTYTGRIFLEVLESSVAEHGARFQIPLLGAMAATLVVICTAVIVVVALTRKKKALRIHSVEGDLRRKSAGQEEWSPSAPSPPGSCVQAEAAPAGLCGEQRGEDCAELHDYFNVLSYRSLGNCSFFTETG

T2: Human TIGIT-his (ACRO, TIT-H52H3) (human, UniProt Q495A1 22-141)
T2 construct: Bought protein
T2 sequence: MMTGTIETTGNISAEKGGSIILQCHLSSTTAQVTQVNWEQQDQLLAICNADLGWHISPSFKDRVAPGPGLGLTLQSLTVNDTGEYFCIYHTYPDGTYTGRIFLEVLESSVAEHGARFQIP


Key:
[1] = target: T1, Human TIGIT expressed on the surface of …; assay: flow cytometry competition against 50 nM human CD155-mouse IgG2a Fc on CHOS cells expressing human TIGIT; positive control
[2] = target: T3, Monkey TIGIT-his (ACRO, TIT-05223) (monkey); assay: BLI (ForteBio), antibody loaded on AHQ sensor, 100 nM TIGIT-his, 1:1 model, monovalent
T3 construct: Bought protein

[3] = target: T2, Human TIGIT-his (ACRO, TIT-H52H3); assay: as above
[4] = target: T1, Human TIGIT expressed on the surface of …; assay: flow cytometry competition against 50 nM human CD155-mouse IgG2a Fc on CHOS cells expressing human TIGIT; positive control; remark: listed apart in the source
[5] = target: T1, Human TIGIT expressed on the surface of …; assay: flow cytometry on CHOS cells expressing human TIGIT; reference antibody
[6] = target: T1, Human TIGIT expressed on the surface of …; assay: flow cytometry on CHO cells overexpressing human TIGIT; reference antibody in the run with CHO-expressed antibodies
[7] = target: T1, Human TIGIT expressed on the surface of …; assay: cell-based or functional assay
[8] = target: T1, Human TIGIT expressed on the surface of …; assay: cell-based or functional assay; remark: listed apart in the source

IC50 [1] [nM] | Kd [2] [nM] | Kd [3] [nM] | IC50 [4] [nM] | EC50 [5] [nM] | EC50 [6] [nM] | EC50, MOA-based assay (luciferase reporter under IL2 promoter), positive control in the run with CHO-expressed antibodies [7] [nM] | EC50, MOA-based assay (luciferase reporter under IL2 promoter) [8] [nM] | Binder
0.166 | 0.472 | 2.34 | 0.154 | 0.436 | 0.185 | 0.342 | 0.838 | 31C6 (anti-human TIGIT reference antibody from Merck) (antibody, V domains shown) VH: EVQLVQSGAEVKKPGASVKVSCKASGYTFSSYVMHWVRQAPGQGLEWIGYIDPYNDGAKYAQKFQGRVTLTSDKSTSTVYMELSSLRSEDTAVYYCARGGPYGWYFDVWGQGTTVTVSS VL: DIQMTQSPSSLSASVGDRVTITCRASEHIYSYLSWYQQKPGKAPKLLIYNAKTLAEGVPSRFSGSGSGTDFTLTISSLQPEDFATYYCQHHFGSPLTFGQGTRLEIK
0.607 | 4.2 | 3.5 | 0.179 | 0.511 | 0.725 |  | 2.11 | 22G2 (anti-human TIGIT reference antibody from BMS) (antibody, V domains shown) VH: QVHLQESGPGLVKPSETLSLTCTVSGGSVSSGIYYWSWIRQPPGKGLEWIGYIYYSGSTNYNPSLKSRVTISVDTSKNQFSLKLSSVTAADTAVYYCARDYYVSGNYYNVDYYFFGVDVWGQGTTVTVSS VL: EIVLTQSPATLSLSPGERATLSCRASQSVSSYLAWYQQKPGQAPRLLIYDASNRATGIPARFSGSGSGTDFTLTISSLEPEDFAVYYCQQRSNWPPLFTFGPGTKVDIK

Source: patent US20210040201A1 (Innovent, published 2021)
